Reference: US20030170726A1, “Peptides sequences comprising one or several protein binding units of the ena/vasp family and the uses thereof” (priority 2000, published 2003)

How the values were obtained:
[1] = test system: proteins of the Ena/VASP family; test: Actin polymerisation on beads coated with proteins binding to the Ena/VASP family (beads of the invention), in lysed cell supernatants; assay type: biochemical, mammal, in particular human; settings: for inhibition of actin polymerisation detected using the beads of the invention: substance added to lysed mammal, in particular human, cell supernatants
From the text: a stage of placing the tested molecule in the presence of a reagent as defined above, in a medium containing actin and the elements necessary for actin polymerisation defined above, in particular in an extract of lysed cell supernatant,
followed by the optional detection of an inhibition or an activation of the process of actin polymerisation at the surface of said reagent, in comparison to a control (namely a medium as described above not containing the tested molecule, and in which is found said reagent), corresponding respectively to an effect of inhibition or stimulation of the tested molecule on the formation of the actin cytoskeleton by the mechanism involving the abovementioned protein or peptide bond or their derived sequence, with a protein of the Ena protein/VASP family.
The abovementioned medium in which the tested molecule is placed in the presence of said reagent, advantageously contains a compound labelled in particular by fluorescence, making it possible to detect actin polymerisation on said reagent. By way of illustration, the abovementioned labelled compound is a fluorescent derivative of actin, such as actin-rhodamine (commercially available), making it possible to visualize actin polymerisation by epifluorescence microscopy.
The GST-ActA-Pro protein was adsorbed onto 500 nm latex beads (Polyscience Inc, 400 Valley Road, Warrington Pa., USA) according to the manufacturers' instructions.

Arp2/3 complex = test: Actin polymerisation on beads coated with WASP protein, in lysed cell supernatants; assay type: biochemical; settings: substance added to lysed mammal, in particular human
From the text: a stage of placing, in a medium containing actin and the elements necessary for actin polymerisation i.e. the Arp2/3 complex, in particular in an extract of lysed cell supernatant, the tested molecule with a reagent comprising WASP family proteins in the eucaryotic cells, in particular human or of other mammal cells, or insect cells, or from micro-organisms such as yeasts, or peptide fragments of these WASP family proteins, said peptide fragments having the property of the WASP family proteins to polymerise the actin by inducing cellular motility, or peptide sequences derived from WASP family proteins or the abovementioned peptide fragments, in particular by substitution of one or more amino acids of these fragments, said derived sequences having the abovementioned property of the WASP family proteins and said fragments of the latter, said abovementioned WASP family proteins, or peptide fragments or derived sequences, being bound or adsorbed to a support as defined above,
followed by the optional detection of an inhibition or an activation of the process of actin polymerisation at the surface of said reagent, in comparison to a control, corresponding respectively to an effect of inhibition or of stimulation of the tested molecule on the formation of the actin cytoskeleton by the mechanism involving the bonding of said WASP family proteins, or abovementioned peptide fragments or derived sequences, with the Arp2/3 complex.

[2] = test system: mitochondria carrying zyxin at their surface; test: Actin polymerisation in mitochondria carrying zyxin at their surface; assay type: cell-based
From the text: Furthermore, as a number of processes dependant on actin polymerisation require the recruitment and activation of the Arp2/3 complex, the Inventors have searched for the presence of this complex in the mitochondria carrying zyxin at their surface.

Molecule: ActA-Pro: ActA protein fragment of Listeria monocytogenes, 350 amino acids, positions 235 to 584 of SEQ ID NO 2
- inhibition of actin polymerisation detected using the beads of the invention [1]: inhibited
- inhibition of actin polymerisation detected using beads coated with WASP protein (Arp2/3 complex): not inhibited

B1: GST-ActA-Pro: recombinant protein composed of GST (237 residues) and proline rich and carboxy-terminal central parts of ActA (350 residues, SEQ ID NO 6) (protein)
chain: DFPPPPTDEELRLALPETPMLLGFNAPATSEPSSFEFPPPPTDEELRLALPETPMLLGFNAPATSEPSSFEFPPPPTEDELEIIRETASSLDSSFTRGDLASLRNAINRHSQNFSDFPPIPTEEELNGRGGRPTSEEFSSLNSGDFTDDENSETTEEEIDRLADLRDRGTGKHSRNAGFLPLNPFASSPVPSLSPKVSKISAPALISDITKKTPFKNPSQPLNVFNKKTTTKTVTKKPTPVKTAPKLAELPATKPQETVLRENKTPFIEKQAETNKQSINMPSLPVIQKEATESDKEEMKPQTEEKMVEESESANNANGKNRSAGIEEGKLIAKSAEDEKAKEEPGNHTT
- nucleation of actin by the coated beads ([1]; protein adsorbed onto 500 nm latex beads, added to extracts prepared from cells): capable of nucleating the actin

B2: WASP: WASP protein, expressed from the WAS gene mutated in Wiskott-Aldrich Syndrome; interacts with the Arp2/3 complex (protein, UniProt P42768 2-502, looked up)
Actin nucleation-promoting …: SGGPMGGRPGGRGAPAVQQNIPSTLLQDHENQRLFEMLGRKCLTLATAVVQLYLALPPGAEHWTKEHCGAVCFVKDNPQKSYFIRLYGLQAGRLLWEQELYSQLVYSTPTPFFHTFAGDDCQAGLNFADEDEAQAFRALVQEKIQKRNQRQSGDRRQLPPPPTPANEERRGGLPPLPLHPGGDQGGPPVGPLSLGLATVDIQNPDITSSRYRGLPAPGPSPADKKRSGKKKISKADIGAPSGFKHVSHVGWDPQNGFDVNNLDPDLRSLFSRAGISEAQLTDAETSKLIYDFIEDQGGLEAVRQEMRRQEPLPPPPPPSRGGNQLPRPPIVGGNKGRSGPLPPVPLGIAPPPPTPRGPPPPGRGGPPPPPPPATGRSGPLPPPPPGAGGPPMPPPPPPPPPPPSSGNGPAPPPLPPALVPAGGLAPGGGRGALLDQIRQGIQLNKTPGAPESSALQPPPQSSEGLVGALMHVMQKRSRAIHSSDEGEDQAGDEDEDDEWDD
- inhibition of actin polymerisation detected using the beads of the invention [1]: not inhibited
- inhibition of actin polymerisation detected using beads coated with WASP protein (Arp2/3 complex): inhibited
- inhibition of actin polymerisation in the mitochondria [2]: does not inhibit

B3: N-WASP: N-WASP protein, approximately 45% sequence identity with human WASP protein; interacts with the Arp2/3 complex (protein, UniProt O00401 2-505, looked up)
Actin nucleation-promoting …: SSVQQQPPPPRRVTNVGSLLLTPQENESLFTFLGKKCVTMSSAVVQLYAADRNCMWSKKCSGVACLVKDNPQRSYFLRIFDIKDGKLLWEQELYNNFVYNSPRGYFHTFAGDTCQVALNFANEEEAKKFRKAVTDLLGRRQRKSEKRRDPPNGPNLPMATVDIKNPEITTNRFYGPQVNNISHTKEKKKGKAKKKRLTKADIGTPSNFQHIGHVGWDPNTGFDLNNLDPELKNLFDMCGISEAQLKDRETSKVIYDFIEKTGGVEAVKNELRRQAPPPPPPSRGGPPPPPPPPHNSGPPPPPARGRGAPPPPPSRAPTAAPPPPPPSRPSVAVPPPPPNRMYPPPPPALPSSAPSGPPPPPPSVLGVGPVAPPPPPPPPPPPGPPPPPGLPSDGDHQVPTTAGNKAALLDQIREGAQLKKVEQNSRPVSCSGRDALLDQIRQGIQLKSVADGQESTPPTPAPTSGIVGALMEVMQKRSKAIHSSDEDEDEDDEEDFEDDDEWED
- inhibition of actin polymerisation detected using the beads of the invention [1]: not inhibited
- inhibition of actin polymerisation detected using beads coated with WASP protein (Arp2/3 complex): inhibited
